What was measured:
[1] = biological target: T1, EMC3(T102C)-GFP, cysteine in loop 2 of EMC3 (human, UniProt Q9P0I2 1-261, T102C); test: cross-linking
T1 sequence: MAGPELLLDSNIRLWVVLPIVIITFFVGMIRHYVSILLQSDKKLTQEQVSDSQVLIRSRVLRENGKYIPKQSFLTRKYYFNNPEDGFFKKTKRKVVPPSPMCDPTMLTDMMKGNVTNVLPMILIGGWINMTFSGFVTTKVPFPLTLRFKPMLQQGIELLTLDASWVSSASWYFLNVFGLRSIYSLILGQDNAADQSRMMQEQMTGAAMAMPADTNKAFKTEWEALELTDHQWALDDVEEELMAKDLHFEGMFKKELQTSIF

[2] = biological target: T2, ALFA-EMC7(M214C), cysteine in helix 2 (H2) of EMC7 (human, UniProt Q9NPA0 24-242, M214C); test: cross-linking
T2 sequence: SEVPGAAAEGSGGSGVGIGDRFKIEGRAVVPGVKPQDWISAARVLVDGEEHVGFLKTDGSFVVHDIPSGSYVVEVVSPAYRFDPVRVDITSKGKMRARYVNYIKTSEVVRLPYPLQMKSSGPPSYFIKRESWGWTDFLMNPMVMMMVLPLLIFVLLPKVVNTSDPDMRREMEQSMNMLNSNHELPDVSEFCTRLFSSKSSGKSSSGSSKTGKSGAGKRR

binding result [1]: binds | binding result [2]: binds
B1: SQS(L401C): 3xFLAG-Sec61β(2-59, C39S)-SQS(378-end) with a cysteine at L401 in the TMD (other)
chain: PGPTPSGTNVGSSGRSPSKAVAARAAGSTVRQRKNASSGTRSAGRTTSAGTGGMWRFYSRSHYSPIYLSFVMLLAALSWQYCTTLSQVTEDYVQTGEH
modifications: 35S-methionine labelled

Reference: publication doi:10.1101/2022.11.29.518402 (bioRxiv, 2022)
